B1: T2: wheat EPSPS mutant, SEQ ID NO: 18, merely containing the mutation P118(101)S; control (protein)
chain: MATSVAAPAAPAGAEEVVLQPIREISGAVQLPGSKSLSNRILLLSALSEGTTVVDNLLNSEDVHYMLEALEALGLSVEADKVAKRAVVVGCGGRFPVEKDAKEEVKLFLGNAGTAMRSLTAAVVAAGGNATYVLDGVPRMRERPIGDLVVGLQQLGADVDCFLGTNCPPVRINGKGGLPGGKVKLSGSISSQYLSSLLMAAPLALEDVEIEIIDKLISVPYVEMTLKLMEHFGVTAEHSDSWDRFYIKGGQKYKSPGNAYVEGDASSASYFLAGAAITGGTVTVEGCGTTSLQGDVKFAEVLEMMGAKVTWTDTSVTVTGPPRQPFGRKHLKAVDVNMNKMPDVAMTLAVVALFADGPTAIRDVASWRVKETERMVAIRTELTKLGATVEEGPDYCIITPPEKLNITAIDTYDDHRMAMAFSLAACAEVPVTIRDPGCTRKTFPNYFDVLSTFVKN
B2: T5: wheat EPSPS mutant, SEQ ID NO: 24, mutations L216(195)P and S269(247)G (protein)
chain: B1 chain with S118P, L216P, S269G
B3: T3: wheat EPSPS mutant, SEQ ID NO: 20, mutations S269(247)G and P118(101)S (protein)
chain: B1 chain with S269G
B4: T4: wheat EPSPS mutant, SEQ ID NO: 22, mutation L216(195)P (protein)
chain: B1 chain with S118P, L216P

Numbering of substitutions follows the chain as printed.

The first assay deals with transgenic rice plants. As to the kind of experiment: glyphosate resistance of the EPSPS mutant in transgenic rice plants sprayed with Roundup 41% ammonium glyphosate. The class given is in vivo, rice (Nipponbare). Conditions: 1× dosage 1060 g/hectare glyphosate sprayed; recorded on 10th day. The method in brief: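 EPSPS mutant genes were cloned into pGVP1 and introduced into Nipponbare rice embryo-derived calluses via Agrobacterium EHA105 (OD 0.2, 10 min infection, 2–3 days co-culture at 25 °C in the dark). Calluses went through recovery, two 14-day screening rounds at 30 °C, two differentiation rounds and rooting to regenerate transgenic plants.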
As for B1, the “%++&+++ (percentage of plant having medium and high glyphosate resistance to the total number of plants observed)” value stood at 52.8%; the “number of plants denoted by + (low glyphosate resistance)” value (“number … (low glyphosate resistance)” for short) is 13; the “number of plants denoted by ++ (medium glyphosate resistance)” value (“number … (medium glyphosate resistance)” for short) was 15; the “number of plants denoted by +++ (high glyphosate resistance)” value (“number of plants denoted by +++” for short) stood at 13. Moreover, the “number of plants denoted by − (no glyphosate resistance)” value (“number … (no glyphosate resistance)” below) is on record as 12.

Regarding B2, the “%++&+++ (percentage of plant having medium and high glyphosate resistance to the total number of plants observed)” value is 45.5%; the “number … (low glyphosate resistance)” value stood at 6; the “number … (medium glyphosate resistance)” value is recorded as 3; the “number of plants denoted by +++” value was determined as 7. Moreover, the “number … (no glyphosate resistance)” value was 6.

B3: the “%++&+++ (percentage of plant having medium and high glyphosate resistance to the total number of plants observed)” value stood at 71.0%; the “number … (low glyphosate resistance)” value came out at 27; the “number … (medium glyphosate resistance)” value is given as 33; the “number of plants denoted by +++” value came out at 77. Further, the “number … (no glyphosate resistance)” value stood at 18.

As to B4, the “%++&+++ (percentage of plant having medium and high glyphosate resistance to the total number of plants observed)” value is given as 35.6%; the “number … (low glyphosate resistance)” value is on record as 30; the “number … (medium glyphosate resistance)” value is 18; the “number of plants denoted by +++” value was 8. For the same molecule, the “number … (no glyphosate resistance)” value was determined as 7.

The assay is the same for the next values; noted with them: 1× glyphosate dosage.
For the molecule B1, the “glyphosate resistance / survival of the rice transformed by the EPSPS, in words” value (shortened to “glyphosate resistance / survival”) is “had relatively high resistance to glyphosate”.

Turning to B2, the “glyphosate resistance / survival” value is on record as “obviously superior to that of the rice seedlings transformed by T0”.

As for B3, the “glyphosate resistance / survival” value is recorded as “had relatively high resistance to glyphosate”.

For B4, the “glyphosate resistance / survival” value is given as “obviously superior to that of the rice seedlings transformed by T0”.

Still in this assay, the particulars now being: 2× dosage 2120 g/hectare sprayed to plants surviving 1×; recorded 10 days later.
As to B1, the “%++&+++ (percentage of plant having medium and high glyphosate resistance to the total number of plants observed)” value is reported as 7.5%; the “number … (low glyphosate resistance)” value was found to be 26; the “number … (medium glyphosate resistance)” value was determined as 3; the “number of plants denoted by +++” value is 1. The “number … (no glyphosate resistance)” value was determined as 23.

For the molecule B2, the “%++&+++ (percentage of plant having medium and high glyphosate resistance to the total number of plants observed)” value is recorded as 84.6%; the “number … (low glyphosate resistance)” value worked out at 8; the “number … (medium glyphosate resistance)” value worked out at 4; the “number of plants denoted by +++” value worked out at 0. Further, the “number … (no glyphosate resistance)” value stood at 10.

Turning to B3, the “%++&+++ (percentage of plant having medium and high glyphosate resistance to the total number of plants observed)” value is listed as 51.0%; the “number … (low glyphosate resistance)” value was found to be 47; the “number … (medium glyphosate resistance)” value is on record as 46; the “number of plants denoted by +++” value turned out to be 33. Moreover, the “number … (no glyphosate resistance)” value is 29.

On to B4, for which the “%++&+++ (percentage of plant having medium and high glyphosate resistance to the total number of plants observed)” value is reported as 18.2%; the “number … (low glyphosate resistance)” value worked out at 40; the “number … (medium glyphosate resistance)” value is recorded as 0; the “number of plants denoted by +++” value is 4. For the same molecule, the “number … (no glyphosate resistance)” value is given as 34.

Still in this assay, the particulars now being: 2× glyphosate dosage.
Regarding B2, the “glyphosate resistance / survival” value is “some of the transgenic rice seedlings transformed by T4, T1 and T5 still survived”.

In the case of B4, the “glyphosate resistance / survival” value was “some of the transgenic rice seedlings transformed by T4, T1 and T5 still survived”.

Still in this assay, the particulars now being: 5× dosage 5300 g/hectare sprayed to plants surviving 2×; recorded 10 days later.
B1: the “&++&+++ (percentage of plant having medium and high glyphosate resistance to the total number of plants observed)” value turned out to be 0.0%; the “number … (low glyphosate resistance)” value was 21; the “number … (medium glyphosate resistance)” value turned out to be 0; the “number of plants denoted by +++” value amounted to 0. The “number … (no glyphosate resistance)” value amounted to 32.

Turning to B2, the “&++&+++ (percentage of plant having medium and high glyphosate resistance to the total number of plants observed)” value was 18.2%; the “number … (low glyphosate resistance)” value turned out to be 5; the “number … (medium glyphosate resistance)” value is 4; the “number of plants denoted by +++” value was found to be 0. For the same molecule, the “number … (no glyphosate resistance)” value amounted to 13.

As to B3, the “&++&+++ (percentage of plant having medium and high glyphosate resistance to the total number of plants observed)” value was found to be 25.8%; the “number … (low glyphosate resistance)” value stood at 75; the “number … (medium glyphosate resistance)” value is on record as 38; the “number of plants denoted by +++” value is reported as 2. Moreover, the “number … (no glyphosate resistance)” value stood at 40.

As for B4, the “&++&+++ (percentage of plant having medium and high glyphosate resistance to the total number of plants observed)” value amounted to 0.0%; the “number … (low glyphosate resistance)” value is reported as 12; the “number … (medium glyphosate resistance)” value amounted to 0; the “number of plants denoted by +++” value stood at 0. Also, the “number … (no glyphosate resistance)” value is 66.

The assay is the same for the next values; noted with them: 5× glyphosate dosage.
As for B1, the “glyphosate resistance / survival” value is listed as “none of the rice seedlings containing the wheat EPSPS mutant T2 achieved the level of medium glyphosate resistance”.

For B2, the “glyphosate resistance / survival” value was “some of the transgenic rice seedlings transformed by T4, T1 and T5 still survived”.

Turning to B4, the “glyphosate resistance / survival” value was “some of the transgenic rice seedlings transformed by T4, T1 and T5 still survived”.

The same assay, now with this note: 20× dosage 21200 g/hectare sprayed to plants surviving 5×; recorded 10 days later.
Consider B1, for which the “&++&+++ (percentage of plant having medium and high glyphosate resistance to the total number of plants observed)” value is given as 0.0%; the “number … (low glyphosate resistance)” value is on record as 11; the “number … (medium glyphosate resistance)” value was found to be 0; the “number of plants denoted by +++” value amounted to 0. For the same molecule, the “number … (no glyphosate resistance)” value is on record as 42.

Consider B2, for which the “&++&+++ (percentage of plant having medium and high glyphosate resistance to the total number of plants observed)” value came out at 13.6%; the “number … (low glyphosate resistance)” value amounted to 3; the “number … (medium glyphosate resistance)” value came to 3; the “number of plants denoted by +++” value came out at 0. The “number … (no glyphosate resistance)” value is listed as 16.

Take B3: the “&++&+++ (percentage of plant having medium and high glyphosate resistance to the total number of plants observed)” value is 3.2%; the “number … (low glyphosate resistance)” value is listed as 57; the “number … (medium glyphosate resistance)” value is listed as 5; the “number of plants denoted by +++” value amounted to 0. Besides, the “number … (no glyphosate resistance)” value stood at 93.

With B4, the “&++&+++ (percentage of plant having medium and high glyphosate resistance to the total number of plants observed)” value is on record as 0.0%; the “number … (low glyphosate resistance)” value was 0; the “number … (medium glyphosate resistance)” value stood at 0; the “number of plants denoted by +++” value amounted to 0. Besides, the “number … (no glyphosate resistance)” value was found to be 78.

Still in this assay, the particulars now being: 20× glyphosate dosage.
B1: the “glyphosate resistance / survival” value is “none of the rice seedlings containing the wheat EPSPS mutant T2 achieved the level of medium glyphosate resistance”.
